Experiment [1] deals with murine vascular endothelial adhesion molecule-1 (VCAM-1) (murine) (UniProt P29533). As to the kind of experiment: cell-based or functional assay.
Experiment [2] shares this target. As to the kind of experiment: bEnd.3 cells treated with coaguligand, detected with 125I-labeled 10H10; attributed to constitutive VCAM-1 expression.
In experiment [3] the target is anti-VCAM-1•tTF coaguligand (anti-VCAM-1 antibody MK2.7 covalently linked through SMPT to truncated tissue factor, one antibody to one tTF, Mr 180,000) (human) (UniProt P13726). Description: 125I-labeled 10H10 bound to anti-VCAM-1•tTF-treated, IL-1alpha-activated bEnd.3 cells, at saturation.

The values below come from patent publication US20050089523A1.

Chain of UniProt P29533 (P29533 25-739): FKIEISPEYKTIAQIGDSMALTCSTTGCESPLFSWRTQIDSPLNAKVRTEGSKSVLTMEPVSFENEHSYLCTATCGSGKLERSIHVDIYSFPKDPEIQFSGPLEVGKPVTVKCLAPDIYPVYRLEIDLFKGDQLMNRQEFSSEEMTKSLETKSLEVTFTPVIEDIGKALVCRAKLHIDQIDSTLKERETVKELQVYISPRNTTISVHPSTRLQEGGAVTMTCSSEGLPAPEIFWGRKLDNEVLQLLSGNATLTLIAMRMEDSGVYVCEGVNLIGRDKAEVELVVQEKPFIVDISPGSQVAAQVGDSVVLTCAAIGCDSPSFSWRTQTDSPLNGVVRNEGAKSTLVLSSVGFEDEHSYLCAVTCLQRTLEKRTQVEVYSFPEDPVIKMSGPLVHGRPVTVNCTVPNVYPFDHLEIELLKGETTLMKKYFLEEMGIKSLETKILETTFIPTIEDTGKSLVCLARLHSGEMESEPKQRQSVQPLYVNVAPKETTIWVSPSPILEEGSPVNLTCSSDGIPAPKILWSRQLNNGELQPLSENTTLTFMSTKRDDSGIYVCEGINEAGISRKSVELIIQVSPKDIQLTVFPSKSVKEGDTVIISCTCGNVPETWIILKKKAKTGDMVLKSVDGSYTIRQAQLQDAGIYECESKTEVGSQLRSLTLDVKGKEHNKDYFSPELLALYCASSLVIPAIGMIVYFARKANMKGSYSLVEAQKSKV

In experiment [1], “anti-VCAM-1•tTF coaguligand (anti-VCAM-1 antibody MK2.7 covalently linked through SMPT to truncated tissue factor, one antibody to one tTF, Mr 180,000) (from UniProt P13726 33-251)” returned a Generation of Factor Xa by anti-VCAM-1•tTF bound to intact, IL-1α-stimulated bEnd.3 cells (ng per 10^4 cells per 60 min.) of 3.17; a Generation of Factor Xa by anti-VCAM-1•tTF bound to intact, unstimulated (control) bEnd.3 cells (ng per 10^4 cells per 60 min.) of 1.64; a Generation of Factor Xa by anti-VCAM-1•tTF bound to saponin-permeabilized, IL-1α-stimulated bEnd.3 cells (ng per 10^4 cells per 60 min.) of 98.8; a Generation of Factor Xa by anti-VCAM-1•tTF bound to saponin-permeabilized, unstimulated (control) bEnd.3 cells (ng per 10^4 cells per 60 min.) of 49.2. The binding to unstimulated cells relative to activated cells in experiment [2] amounted to 0.5.

For “10H10, mouse monoclonal antibody against human tissue factor”, in experiment [3], the amount of anti-TF antibody bound at saturation came to 8.7 fmol and the molecules of anti-TF antibody bound per cell (molecules per cell) is 540000.
